From the nanobody polyreactivity screen of Harvey et al. (2022)

Assay: yeast display, Sf9 membrane polyspecificity reagent, FACS + sequencing; frameworks hold sequencing errors
Procedure, shortened: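 Synthetic nanobody libraries on Saccharomyces cerevisiae BJ5465 were galactose-induced for 36–48 hours, stained 1 hour at 4 °C with 10% biotinylated, detergent-solubilized Sf9 membrane reagent and enriched on streptavidin microbeads. FACS then separated cells into low and high (top ~1%) gates by anti-HA (expression) and streptavidin (reagent binding) fluorescence. Genes were colony-PCR amplified, MiSeq 2 × 250 sequenced and CDR-length filtered. A clone's polyreactivity label is that of its gate of origin.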

| Sequence | polyreactivity (PSR sort gate) |
| --- | --- |
| QVRLVESGGGLVQAGGSLRLSCAASGSILDINAMGWYRQAPGKERELVASISWTGGHTYYADSVKGRFTISRDNAKNTVYLQMNSLKPEDTAVYDCAATHQETVYYFLSIFDYWGQGTQVTVSS | low polyreactivity |
| QVQLVESGGGLVQAGGSLRISCAASGRIYPVYVMGWYRQAPGKERELVAAINYNGGSTTYADSVKGRFTISRDNAKNTVYLQMNSLKPADTAVYYCAAGTPAYVETEYEYWGQGTQVTVSS | low polyreactivity |
| QVQLVESGGGLVQAGGSLRLSCAASGFIFGDNAMGWYRQAPGKERELVAAINSGSRTSYADSVKGRFTISRDNAKNTVFLQMNSLKPEDTAVYYCAAESVSSGDNASRYDFWGQGTQVTVSS | low polyreactivity |
| QVQLVESGGGLVQAGGSLRLSCAASGRTFQWYAMGWYRQAPGKERELVAAISWGGGRTYYADSVKGRFTISRDNAKNTVYLQMNSLKPEDTAVYYCAASYRKLPDKKRYGYWGQGTQVTVSS | high polyreactivity |
| QVQLVESGGGLVQAGGSLRLSCAASGSIFTTNAMGWYRQAPGKERELVAAISSRGTSTYYADSVKGRFTISRDNAKNTVYLQMNSLKPEDTAVYYCPNPYGYWGQGTQVTVSS | high polyreactivity |
| QVQLEESGGGLVQAGGSLRLSCAASGSIFVGYALGWYIQAPGKERELVASITTRGGSTHYADYVKGRFTISRDNAKNTVYLQMNSLKPEDTAVYYCAADSLSNGVLQYLPGYDYWGQGTQVTVSS | low polyreactivity |
| QVQIVESGGGLVQAGGSLRLSSAASGITFRHYAMGWYRQAPGKERELVAAITSRGGSTYYADSVKGRFTISRDNAKNTVYLQMNSLKPEDTAVYYCAKGTVHSRPDFGRGWYRWDDYWGQGSQVTVSS | high polyreactivity |
| LVQHQESGGGLVQAGGSLRLSCAASGTIFLRYYMGWYRQAPGKQREFVAAINIGATANYADSLKGRFTISRDNAKNTVYLQMKSLYPQDTAVYYCAVYYPIYRQHDYWGQGSQVTVSS | low polyreactivity |
| QVQLVESGRGLFQSGGSLRLSCAASGRTFVPYAMGWYRQAPGKESELVAAISYSGDSTYYADSVKGRFTISRDNAKNTVYLQMKSLIPEDTAVYYCAKRGPVRNTAYDYWGQGTQVTVSS | low polyreactivity |
| QVQLVESGGGLVQAGGSLRLSCAASGFTYRPNAMGWYRQAPGKERELVASIRYSGGSTYYADSVKGRFTISRDNAKNTVYLQMNSLKPEDTAVYYCAAVLYSWMRLGSTYTYDYWGQGTQVTVSS | low polyreactivity |
| QVQLVESGRGLVQAGGSLRLSCAASGSTFRYNTMGSYRQAPGKERELVAAITGGGGSTYYADSVKGRFTISRDNAKNTVYLQMNSMKPEDTAVYYCATRSYALGYDYGGQGTQVTVSS | low polyreactivity |
| QVQLVESGGGLVQAGGSLRLSCAASGRIFIKYAMGWYRQAPGKERELVAAISQSGGSTYYADSVKGRFTISRDNAKNTVYLQMNSLKPEDTAVYYCAVRLYYSIRYYYWGQGTQVTVSS | high polyreactivity |
| QVQLVESGGGLVQAGGSLRLSCAASGRIFVRNAMGWYRQAPGKERELVAAISWSSGGPYYADSVKGRFTISRDNAKNTVYLQMNSLKPDDTAVYYCNADPSRAGDYWGQGTQVTVSS | low polyreactivity |
| QVQLVESGGGLVQAGGSLRLSCPASGIIFYGYTMGWYRQEPGKERELVAAISRSGGRTYYADSVKGRFTISRDNAKYTVYLQMNSLKPEDTAVYYCAATGSYSDRVEDEFWGQGTQVTVST | high polyreactivity |
| QVQLVESGGGLVQAGGSLRLSCAASGRIFLVYAMGWYRQAPGKERELVAAIRSGGSTYYADSVKGRFTISRDNAKNTVYLQMNSLKPEVTAVYYCIADSPWYWVRYGVSRRDYWGQGTQVTVSS | low polyreactivity |
| QVQLVESGGGLVQAGGSLRLSCAASGNIFPPNTMGWDRQAPGKDRELVAAISSRGSRTYYADSVKGRFTISRDNAKNTVYLQMNSLKPEDTAVYYCAAQQWQGGYLYDYWGQGTQVTVSS | high polyreactivity |
| QVQLVESGGGLVQAGGSLRLSCAASGFIFAGYAMGWYRQAPGKERELVAAISWDGGSTYYADSVKGRFTISRDNAKNTVYLQMNSLKPEDTAVYYCARARYGKYGYWGQATQVTVSS | low polyreactivity |
| QVQLVESGGGLVQAGGSLSLSCDASGRIIHSYAMGWYRQEPGKERELVAAISWSGTSTYYADSVKGRFTISRDNAKNTVYLQMNSLKPEDTEVYYCAARGRYVFDGYRMYFWGQGSQVTVSS | high polyreactivity |
| QVQLVESGGGLVQAGGSLRLSCAASGLTFNTYAMGWYRQAPGKERELVAAITKGGGRTYYADSVKGRFTISRDNAKNTVYLQMNSLKPEDTAVYYCAAYGYIYRVGYANGVVTSQDDYWGQGTQVTVSS | high polyreactivity |
| QVQLVESGGGLVQAGGSLRLSCAASGSIFTPNAMGWYRQAPGKERELVAAISSSSDRTYYADSVKGRFTLSRDNAKNTVYLQMNSLKPEDTAVYYCAAYAQKRYYWGQGTQVTVSS | high polyreactivity |
| QVQLVESGGGLVQAGGSLRLSCAASGSTISFLIMGWYRQAPGKERELVAAISRSGGRTYYADSVKGRFTISRDNAKNTVYFQMNSLKPEDTAVYYCAADYVSVDRIRYGYWGQGTQVTVSS | high polyreactivity |
| QDQLVESGGGLVQAGGSLRLSCAASGSNFRFNAMGWDTQAPGKEREFDAANSRSGGRTYYADSVKGRFRISRDNAKNTVYFQMNCLKPEDTAVFYCNAVWRFPIGRSAPRYDYWGQGTQVTVSS | high polyreactivity |

| Sequence | polyreactivity (PSR sort gate) |
| --- | --- |
| QVQLVESGGGLVQAGGSLRLSCAASGRIFVVNTMGWYRQAPGKERELVAAISFSGVSTYYADSVKGRFTISRDNAKNTVYLQMISLKPEDTAVYYCAAVPYRQYPGGGYWGQGTQVTVSS | low polyreactivity |
| QDQLVESGGGLVQAGGSLRLSCAASGRNFGYYTRGWYRQAPGKERELVATINWSGGNTYYADSVKGRFTISRDNAKNTVYLQMTCLKPEDTAVYYCATRSRAPQQVYYQNYDYWGQGTQVTVSS | high polyreactivity |
| QVQLVESGGGLVQAGGSLRLSCAASGFTLKYYAMGWYRQAPGKERELVAAITSSGVSTYYADSVKGRFTISRDNAKNTVYLQMNSLKPEDTAVYYCAALYWYSRSSWDYDYWGQGTQVTVSS | high polyreactivity |
| QVKLVESGGGLVQAGGSLRLSCAASGSIFGSNAMGWYRQAPGKERELVAAITGRGGRTYYADSVKGRFTISRDNAKNTVYLQMNSLKPEDTAVYYCAAIRREVVAGDYWGQGTQVTVSS | high polyreactivity |
| QVQLVESGGGLVQAGGSLRLSCAASGRTFGKNAMGWYRQAPGKEREFVAAITSRGGSTYYADSVKGRFTISRDNAKNTVYLQMNSLKPEDTAVYYCNREYKRPSQRTEHYYWGQGTQVTVSS | low polyreactivity |
| QVQLVESGGGLVQAGGSLRLSCAASGITFYDYAMGWYRQAPGKERELVASIDNSGGSTYYADSVKGRFTISRDNAKNTVYLQMNSLNPEDTAVYYCAAVSRYYFLGVAFLDDYWGQGTQVTVSS | high polyreactivity |
| QVQLVESGGGLVQAGGSLRLSCAASGLTSIHYMGWSRQAPGKERELVATITSSTGSTYYADSVKGRFTISRDNAKNTVYLQMNSLKPEDTAVYYCAAESFGADGPYQPSYDYWGQGTQVTVSS | low polyreactivity |
| QVQLVESGGGLDQAGGSLRLSCAASGNIFRIYAMGWYRQAPGKERELVATITKRGGSTYYADSVKGRFTISRDNAKNTVYLQMNSLKPEDTAVNYCNAVTKLWYDYDYWGQGTQGTVSS | high polyreactivity |
| QVQLVESGGGLVQAGGSLRLSCAASGSIFDYNAMGWYRQAPGKERELVAAITYSGGTTYADSVKGRFTISRDNAKNTVYLQMNSLKPEDTAVYYCNADVYRWSGSYTGWDSWHDYWGQGTQVTVSS | low polyreactivity |
| QVQLVESGGGLVQAGGSLRLSCAASGRIFGEYAMGWYRQAPGKERELVAAISGGGSTYYADSVKGRFTISRDNAKNTVYLQMNSLKPEETAVYYCAVYSVYHEYDYWGHGTQVTVSS | low polyreactivity |
| QVQLVESGGGIVQAGGSLRLSCAASGYSFFINAMGWSRQAPGKERELVAAIDLRGGSTYYADSVKGRFTISRDNAKNTVYLQMNSLKPEDTAVYYCNARARRYGGRYYYWGQGTQVTVSS | high polyreactivity |
| QVQLVESGGGLVQAGCSLRLSCAASGSIFAYYTMGWYRQAAGKERELVATISSGDITNYADSVKGRFTISRDNAKNSVYLQMNSLKPEDTAVYFCAAAELTSYYRTFIHKDYDFWGQGTQVSVSS | low polyreactivity |
| QVQLVESGGGLVQAGGSLRLSCAASGSIFPVYTMGWYRQAPGKERELVADIDSGGSTNYADSVKGRFTISRDNAKNTVYLQMNSLKPEVTAVYDCAADYYYYFYSLYIDPYAFDYWGLGTQVTVSS | low polyreactivity |
| QVQLVESGGGLVQAGGSLRLSCAASGIIFWSYTMGWYRQAPGKEREFVASLRKSGGSTYYADSVKGRFTISRDNSKNTVYLQMNSLKPEDTAVYYCAAVYRRYLGGGYDYWGQGTQVTVSS | high polyreactivity |
| QVQLVESGGGLVQAGGSLRLSCAASGRTFTYYAMGWYRQAPGKERELVAAITSGGRTYYADSVKGRFTISRDNAKNTVYLQMKSLKPEDTAVYYCAARRIRDYYRSYDYWGQGTQVTVSS | high polyreactivity |
| QVQLVESGGGLVQAGGSLRLSCAASGSTFYRNAMGWYRQAPGKERELVATISTGGVSTYYADSVKGRFTISRDNAKNTVYLQMNSLKPEDTAVYYCAKRTVYLSNLDYWGQGTQVTLSS | low polyreactivity |
| QVQLVESGGGLVQAGGSLRLSCAASGNTLRYNVMGWYRQAPGKERELDAAISGGGSTSYADSVKGRFTISRDNAKNTVYLQMNSLKPEDTAVYYCAKRSFVGGRGRDSDYWGQGSQVTVSS | low polyreactivity |
| QVQLVESGGGLVQAGGSLRLSCAASGFIFNTNAMRWYRQAPVKEREFDAAITSSDGNTYYADSVKGRFTISRDNAKNTVYLQMNSLKPEDTAVYYCAADARTKSYVRLYDYWGQGTQVTVSS | low polyreactivity |
| QVQLVESGGGLDQAGGSLRLSCAASGRIFGRYAMGWYRQAPGKERELVASISRGGSTNYADSVKGRFTISRDNAKNTVYLQMNSLKPEDTAVYYCAKSGGVGGEDRVGSWGQGTQVTVSS | low polyreactivity |
| QGHLVESGGGLVQAGGSLRLSCAASGFIFDYYAMGWYRQAPRKERELVAAITRDGGGTYYADSVTGRFTISRDNAKNTVYLQMNSLKPEDTAVYYCAARRAVRLYYWGQGTQVTVSS | high polyreactivity |
| QVQLVESGGGLVQAGGSLRLSCAASGIIFLDYVMGWYRQAPGKERELVAAINSGGSTYYADSVKGRFTISRDNAKNTVYLQMNSLKPEDTAVYYCAADDYYKFDYWGQGTQVSVSS | low polyreactivity |
